Experimental data: publication doi:10.1101/2020.10.25.354415 (bioRxiv, 2020)

B3: αT-catenin head region (aa1-659) (domain or fragment, M. musculus, UniProt Q65CL1 1-659, looked up)
chain: MSAETPITLNMDTQDLQIQTFTVEKLLEPLIIQVTTLVNCPQNPSNRKKGRSKRARVLLASVEEATWNLLDKGEMIAKEATVLKEELAAALQEVRKESKALKVSAERFTDDPCYLPKREAVVQAARALLAAVTRLLVLADMIDVMCLLQHVSSFQRTFESLKNVSNKSDLQRTYQKLGKELESLDYLAFKRQQDLKSPSQRDEIAGARATLKENSPLLHSICSACLEHSDVASLKASKDTVCEEIQNALDVISNASQGIQNAPAPPEPQAATLGSAFDELENLIVLNPLTVTEEDVRPSLEKRLEAIISGAALLADSSCTRDLHRERIIAECNAIRQALQDLLTEYMSNTGKTERSNTLNTAIVNMSKKTRDLRRQLRKAIIDHISDSFLDTTVPLLVLIEAAKNGRVKEIKDYAAIFHEHTGRLVEVANLACSMSTNEDGIKIVRIAANHLETLCPQIINAALALASRPKSQVVKNTMEMYKRTWEHYIHVLTEAVDDITSIDDFLAVSESHILEDVNKCIIALRDQDADNLDRAAGAIRGRAARVAHIVAGEMDSYEPGAYTEGVMRNVNFLTSTVIPEFVTQVNVALDALSKNSLTALDDNQFVDISKKIYDTIHDIRCSVMMIRTPEELEDVSDLEDDHEVRSHTSIQTEGKTDR

Columns and labels:
SEC = biological target: the molecule itself; test: SEC
[1] = biological target: T1, β-catenin•N-cadherin cytoplasmic tail complex (M. musculus | , UniProt Q02248 1-781; P15116 746-906); test: ITC
T1 sequence (looked up) 1: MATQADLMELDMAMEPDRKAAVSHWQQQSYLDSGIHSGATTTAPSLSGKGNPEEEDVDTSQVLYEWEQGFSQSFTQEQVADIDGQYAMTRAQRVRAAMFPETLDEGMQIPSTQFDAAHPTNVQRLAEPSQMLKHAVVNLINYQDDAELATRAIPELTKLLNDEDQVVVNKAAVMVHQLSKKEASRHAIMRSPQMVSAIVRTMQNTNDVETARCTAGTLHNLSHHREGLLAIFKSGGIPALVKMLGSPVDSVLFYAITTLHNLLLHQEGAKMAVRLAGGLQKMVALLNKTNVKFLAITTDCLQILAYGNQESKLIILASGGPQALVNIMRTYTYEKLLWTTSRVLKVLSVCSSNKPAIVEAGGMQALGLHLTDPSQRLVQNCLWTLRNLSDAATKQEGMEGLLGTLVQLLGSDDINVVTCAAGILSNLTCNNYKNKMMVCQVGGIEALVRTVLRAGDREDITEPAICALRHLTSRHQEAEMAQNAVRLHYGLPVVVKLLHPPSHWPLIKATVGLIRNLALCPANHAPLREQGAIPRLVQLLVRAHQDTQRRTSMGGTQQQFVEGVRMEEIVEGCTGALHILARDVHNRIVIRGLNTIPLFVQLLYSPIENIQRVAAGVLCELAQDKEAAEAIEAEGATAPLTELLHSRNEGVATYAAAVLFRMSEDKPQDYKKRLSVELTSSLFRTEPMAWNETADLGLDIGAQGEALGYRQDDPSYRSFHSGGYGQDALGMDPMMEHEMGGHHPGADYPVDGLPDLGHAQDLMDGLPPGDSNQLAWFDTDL
T1 sequence (looked up) 2: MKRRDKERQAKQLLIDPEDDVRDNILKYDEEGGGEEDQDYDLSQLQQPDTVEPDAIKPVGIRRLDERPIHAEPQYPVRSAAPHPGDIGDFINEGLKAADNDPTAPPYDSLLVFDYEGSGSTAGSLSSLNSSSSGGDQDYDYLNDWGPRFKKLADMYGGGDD

β-catenin = biological target: T2, β-catenin (M. musculus, UniProt Q02248 1-781); test: ITC
T2 sequence (looked up): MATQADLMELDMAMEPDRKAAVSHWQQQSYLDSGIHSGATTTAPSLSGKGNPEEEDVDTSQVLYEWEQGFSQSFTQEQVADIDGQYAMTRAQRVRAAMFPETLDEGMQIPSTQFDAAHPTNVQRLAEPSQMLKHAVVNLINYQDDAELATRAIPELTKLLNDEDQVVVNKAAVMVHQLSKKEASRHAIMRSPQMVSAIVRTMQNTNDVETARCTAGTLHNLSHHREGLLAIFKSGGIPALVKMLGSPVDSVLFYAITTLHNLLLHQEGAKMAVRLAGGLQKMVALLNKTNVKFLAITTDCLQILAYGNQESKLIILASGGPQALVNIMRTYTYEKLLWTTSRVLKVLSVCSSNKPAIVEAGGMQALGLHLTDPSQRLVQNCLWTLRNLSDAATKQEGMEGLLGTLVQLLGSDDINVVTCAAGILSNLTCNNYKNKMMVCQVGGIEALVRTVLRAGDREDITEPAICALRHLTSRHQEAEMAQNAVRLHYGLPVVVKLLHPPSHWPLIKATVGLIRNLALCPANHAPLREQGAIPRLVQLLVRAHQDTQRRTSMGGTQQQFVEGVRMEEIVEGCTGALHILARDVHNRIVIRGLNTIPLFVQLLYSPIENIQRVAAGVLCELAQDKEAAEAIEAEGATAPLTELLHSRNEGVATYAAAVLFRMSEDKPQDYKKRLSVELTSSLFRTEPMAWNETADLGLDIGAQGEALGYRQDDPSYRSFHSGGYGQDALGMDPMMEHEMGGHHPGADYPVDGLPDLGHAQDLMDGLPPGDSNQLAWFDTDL

[2] = biological target: T3, αT-catenin M1-M3 (aa260-626) (M. musculus, UniProt Q65CL1 260-626); test: ITC
T3 sequence (looked up): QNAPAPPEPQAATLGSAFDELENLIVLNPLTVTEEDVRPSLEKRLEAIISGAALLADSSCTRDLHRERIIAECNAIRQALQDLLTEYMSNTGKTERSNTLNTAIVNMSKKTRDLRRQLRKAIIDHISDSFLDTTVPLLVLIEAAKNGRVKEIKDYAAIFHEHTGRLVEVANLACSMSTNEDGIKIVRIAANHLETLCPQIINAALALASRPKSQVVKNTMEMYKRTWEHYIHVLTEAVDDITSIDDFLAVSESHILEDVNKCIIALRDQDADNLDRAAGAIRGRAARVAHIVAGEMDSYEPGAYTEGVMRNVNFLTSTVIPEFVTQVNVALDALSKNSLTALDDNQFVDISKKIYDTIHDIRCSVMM

[3] = biological target: T4, 2I27-αT-catenin M1-M3(aa259-667)-2I27 (UniProt Q65CL1); test: ITC
T4 sequence (Q9UI47 whole entry, species assumed, looked up): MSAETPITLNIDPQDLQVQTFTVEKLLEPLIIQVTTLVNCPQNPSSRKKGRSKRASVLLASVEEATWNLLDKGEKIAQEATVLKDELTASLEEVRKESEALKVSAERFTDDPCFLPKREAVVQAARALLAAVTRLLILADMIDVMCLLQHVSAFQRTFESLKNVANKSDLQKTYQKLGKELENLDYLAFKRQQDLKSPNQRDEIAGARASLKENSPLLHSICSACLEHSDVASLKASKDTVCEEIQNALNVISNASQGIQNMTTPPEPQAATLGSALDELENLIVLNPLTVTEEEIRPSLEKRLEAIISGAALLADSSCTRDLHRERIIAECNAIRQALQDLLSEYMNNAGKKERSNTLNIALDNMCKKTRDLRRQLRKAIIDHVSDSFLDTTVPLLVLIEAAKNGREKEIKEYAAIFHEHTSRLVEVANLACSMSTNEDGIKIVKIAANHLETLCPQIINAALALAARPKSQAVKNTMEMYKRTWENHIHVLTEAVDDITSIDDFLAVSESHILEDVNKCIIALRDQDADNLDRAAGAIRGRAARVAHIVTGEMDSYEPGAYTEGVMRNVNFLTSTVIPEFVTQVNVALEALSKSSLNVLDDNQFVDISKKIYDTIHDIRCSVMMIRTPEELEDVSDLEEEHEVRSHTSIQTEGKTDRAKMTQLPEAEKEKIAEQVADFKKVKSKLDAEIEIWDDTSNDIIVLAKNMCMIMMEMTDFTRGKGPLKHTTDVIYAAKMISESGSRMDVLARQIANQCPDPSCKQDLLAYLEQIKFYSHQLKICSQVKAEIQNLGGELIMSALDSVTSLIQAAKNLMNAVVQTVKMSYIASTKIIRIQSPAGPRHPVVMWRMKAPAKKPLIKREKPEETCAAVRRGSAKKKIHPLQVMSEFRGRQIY

[4] = biological target: B3; test: ITC
[5] = biological target: T5, αT-catenin head•β-catenin complex (M. musculus, UniProt Q65CL1 1-659; Q02248 1-781); test: ITC
T5 sequence (looked up) 1: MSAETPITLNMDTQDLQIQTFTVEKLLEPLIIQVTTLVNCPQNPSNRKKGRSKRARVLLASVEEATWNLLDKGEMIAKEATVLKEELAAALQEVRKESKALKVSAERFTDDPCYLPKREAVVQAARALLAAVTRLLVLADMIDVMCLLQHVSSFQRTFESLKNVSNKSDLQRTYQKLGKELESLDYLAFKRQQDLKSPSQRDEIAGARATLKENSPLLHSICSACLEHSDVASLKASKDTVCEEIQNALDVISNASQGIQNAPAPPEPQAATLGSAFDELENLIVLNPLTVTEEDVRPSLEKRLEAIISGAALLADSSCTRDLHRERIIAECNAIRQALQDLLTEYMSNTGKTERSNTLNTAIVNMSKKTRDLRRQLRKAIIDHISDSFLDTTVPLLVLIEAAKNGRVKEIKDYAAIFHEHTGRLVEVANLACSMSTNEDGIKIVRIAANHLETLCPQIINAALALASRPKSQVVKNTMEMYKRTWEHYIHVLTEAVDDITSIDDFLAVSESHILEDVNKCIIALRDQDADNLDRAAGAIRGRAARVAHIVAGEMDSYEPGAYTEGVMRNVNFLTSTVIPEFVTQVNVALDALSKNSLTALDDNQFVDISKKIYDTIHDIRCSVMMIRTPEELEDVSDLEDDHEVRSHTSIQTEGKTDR
T5 sequence (looked up) 2: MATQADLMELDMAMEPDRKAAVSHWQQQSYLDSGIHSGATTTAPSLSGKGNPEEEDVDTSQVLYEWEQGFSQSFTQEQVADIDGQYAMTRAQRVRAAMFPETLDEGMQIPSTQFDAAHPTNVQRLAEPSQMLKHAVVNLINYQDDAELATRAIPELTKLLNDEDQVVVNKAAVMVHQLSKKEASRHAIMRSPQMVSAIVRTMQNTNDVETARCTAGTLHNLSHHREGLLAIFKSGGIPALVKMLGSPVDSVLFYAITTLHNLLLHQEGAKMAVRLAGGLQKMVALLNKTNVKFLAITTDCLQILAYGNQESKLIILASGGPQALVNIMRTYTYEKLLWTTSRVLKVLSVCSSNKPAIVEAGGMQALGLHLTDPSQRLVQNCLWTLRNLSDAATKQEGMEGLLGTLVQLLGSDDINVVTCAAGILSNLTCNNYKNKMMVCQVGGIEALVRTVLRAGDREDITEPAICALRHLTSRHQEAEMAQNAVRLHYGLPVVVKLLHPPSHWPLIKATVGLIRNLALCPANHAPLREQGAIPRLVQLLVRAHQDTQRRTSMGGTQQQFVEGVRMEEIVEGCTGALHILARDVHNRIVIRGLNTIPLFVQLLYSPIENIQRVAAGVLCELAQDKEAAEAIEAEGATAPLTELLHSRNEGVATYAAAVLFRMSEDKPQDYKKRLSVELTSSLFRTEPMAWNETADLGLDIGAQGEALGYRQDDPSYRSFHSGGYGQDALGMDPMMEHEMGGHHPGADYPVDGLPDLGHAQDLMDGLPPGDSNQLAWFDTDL

[6] = biological target: T6, αT-catenin N2-M3 (aa147-626) (M. musculus, UniProt Q65CL1 147-626); test: ITC
T6 sequence (looked up): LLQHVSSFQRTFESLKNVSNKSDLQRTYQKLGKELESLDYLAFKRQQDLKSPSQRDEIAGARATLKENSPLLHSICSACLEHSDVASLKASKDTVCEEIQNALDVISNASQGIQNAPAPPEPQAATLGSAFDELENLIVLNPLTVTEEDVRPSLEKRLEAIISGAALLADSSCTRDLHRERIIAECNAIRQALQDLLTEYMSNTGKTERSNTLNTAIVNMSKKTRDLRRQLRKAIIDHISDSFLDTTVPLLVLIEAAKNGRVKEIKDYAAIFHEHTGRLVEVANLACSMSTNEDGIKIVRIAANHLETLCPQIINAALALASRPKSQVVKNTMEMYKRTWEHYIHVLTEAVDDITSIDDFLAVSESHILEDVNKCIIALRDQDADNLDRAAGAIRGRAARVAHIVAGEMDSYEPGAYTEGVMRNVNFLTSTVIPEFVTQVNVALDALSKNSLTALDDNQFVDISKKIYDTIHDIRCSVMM

B1: αT-catenin V94D N1-N2 (domain or fragment, M. musculus, UniProt Q65CL1 1-259, looked up)
chain: MSAETPITLNMDTQDLQIQTFTVEKLLEPLIIQVTTLVNCPQNPSNRKKGRSKRARVLLASVEEATWNLLDKGEMIAKEATVLKEELAAALQEDRKESKALKVSAERFTDDPCYLPKREAVVQAARALLAAVTRLLVLADMIDVMCLLQHVSSFQRTFESLKNVSNKSDLQRTYQKLGKELESLDYLAFKRQQDLKSPSQRDEIAGARATLKENSPLLHSICSACLEHSDVASLKASKDTVCEEIQNALDVISNASQGI
stoichiometry N (SEC): 2

B2: αT-catenin N1-N2 (aa1-259) (domain or fragment, M. musculus, UniProt Q65CL1 1-259, looked up)
chain: MSAETPITLNMDTQDLQIQTFTVEKLLEPLIIQVTTLVNCPQNPSNRKKGRSKRARVLLASVEEATWNLLDKGEMIAKEATVLKEELAAALQEVRKESKALKVSAERFTDDPCYLPKREAVVQAARALLAAVTRLLVLADMIDVMCLLQHVSSFQRTFESLKNVSNKSDLQRTYQKLGKELESLDYLAFKRQQDLKSPSQRDEIAGARATLKENSPLLHSICSACLEHSDVASLKASKDTVCEEIQNALDVISNASQGI
Kd [1]: 7 nM

B3
Kd (β-catenin): ~250 nM | Kd [1]: 5 to 6 nM

B4: vinculin D1 (aa1-259) (domain or fragment, UniProt P12003 1-259, looked up)
chain: MPVFHTRTIESILEPVAQQISHLVIMHEEGEVDGKAIPDLTAPVSAVQAAVSNLVRVGKETVQTTEDQILKRDMPPAFIKVENACTKLVRAAQMLQADPYSVPARDYLIDGSRGILSGTSDLLLTFDEAEVRKIIRVCKGILEYLTVAEVVETMEDLVTYTKNLGPGMTKMAKMIDERQQELTHQEHRVMLVNSMNTVKELLPVLISAMKIFVTTKNTKSQGIEEALKNRNFTVEKMSAEINEIIRVLQLTSWDEDAWA
Kd [2]: 50 nM | Kd [3]: 250 nM | Kd [4]: ~5000 nM | Kd [5]: ~3000 nM | Kd [6]: 50 nM
